# Reference: article PMC4161474
# Columns and labels:
# Experiment in all cases: co-IP; HEK293 cells co-transfected with Flag-HBx wt or alanine substitution mutants and His-myc-Spin1; precipitated with anti-Flag antibodies, anti-Myc and anti-Flag blots quantified with the Odyssey system; signal normalised to HBx in the IP/HBx in the input, Flag-HBx wt set to 100% (Figure 1C)
# [1] = biological target: Flag-HBx Cm13, clustered alanine substitution mutant (Hepatitis B virus) (UniProt P69713)
# [2] = biological target: Flag-HBx Cm5, clustered alanine substitution mutant (Hepatitis B virus) (UniProt P69713)
# [3] = biological target: Flag-HBx Cm7, clustered alanine substitution mutant (Hepatitis B virus) (UniProt P69713)
# [4] = biological target: Flag-HBx Cm8, clustered alanine substitution mutant (Hepatitis B virus) (UniProt P69713)
# [5] = biological target: Flag-HBx Cm9, clustered alanine substitution mutant (Hepatitis B virus) (UniProt P69713)
substance,measurement,setting,value
His-Myc-Spindlin1 (from UniProt Q9Y657 1-262) (natural protein),percent of Spindlin1 immunoprecipitated (Flag-HBx wt = 100%),[1],29%
same,percent of Spindlin1 immunoprecipitated (Flag-HBx wt = 100%),[2],10%
same,percent of Spindlin1 immunoprecipitated (Flag-HBx wt = 100%),[3],13%
same,percent of Spindlin1 immunoprecipitated (Flag-HBx wt = 100%),[4],52%
same,percent of Spindlin1 immunoprecipitated (Flag-HBx wt = 100%),[5],28%
